Columns and labels:
[1] = target: MecA fused to the RenG N-terminal domain (1-155) (S. mutans) (UniProt Q8DW33); assay: split reporter (BiFC, NanoBiT)
[2] = target: RNase J1 fused to the RenG N-terminal domain (NTD1, 1-155) (S. mutans); assay: split reporter (BiFC, NanoBiT); RenG split luciferase complementation assay (SLCA) in live S. mutans at mid-log phase, coelenterazine-h, normalised to OD600; signal relative to unfused fragments; relative binding affinity = SLCA value divided by the value of the whole-RenG chimera of the less abundant partner

MecA fused to the RenG N-terminal domain (1-155) (S. mutans), sequence (Q8DW33 whole entry, the tested form may be a part): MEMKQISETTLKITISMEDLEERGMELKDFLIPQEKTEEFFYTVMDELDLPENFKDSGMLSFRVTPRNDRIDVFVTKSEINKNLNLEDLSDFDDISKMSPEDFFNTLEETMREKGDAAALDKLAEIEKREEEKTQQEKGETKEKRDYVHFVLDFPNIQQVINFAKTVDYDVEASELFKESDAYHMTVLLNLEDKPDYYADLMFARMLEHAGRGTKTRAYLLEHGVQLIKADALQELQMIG

Substance | relative binding affinity (%) [1] [%] | relative binding affinity (%) [2] [%]
ComX fused to the RenG C-terminal domain (156-314) (natural protein) | 6.3 | –
GyrA fused to the RenG C-terminal domain (156-314) (natural protein) | 12.9 | –
PcrA fused to the RenG C-terminal domain (156-314) (from UniProt Q8DTY6 1-733) (natural protein) | 6.36 | –
RNase J2 fused to the RenG C-terminal domain (CTD1, 156-314) (natural protein) | – | 97.8
SpaP fused to the RenG C-terminal domain (156-314) (from UniProt P23504 998-1532) (natural protein) | 1.72 | –

Reference: paper PMC10845952
